{
  "source": "patent US9605038B2",
  "about": "“Fusion peptide comprising dhFas-1 domain and MMP substrate and use thereof for preventing and treating rheumatoid arthritis” (Kyungpook National University Industry-Academic Cooperation …, priority 2010, dated 2017)",
  "molecules": {"B1": {"name": "mdhFas-1: peptide prepared by removing H1 and H2 regions from the fourth fas-1 domain of mouse βig-h3 (protein)", "chain": "QAMPPEELNKLLANAKELTNILKYHIGDEILVSGGIGALVRLKSLQGDKLEVSSKNNVVSVNKEPVAETDIM", "modifications": "mdhFas-1", "notes": "peptide prepared by removing H1 and H2 regions from the fourth fas-1 domain of mouse βig-h3"}, "B2": {"name": "MFK25: fusion peptide having sequential links of mdhFas-1, MMP consensus substrate GPLGIAG (SEQ ID NO: 7), and QERGDSLA (SEQ ID NO: 10) (protein)", "chain": "QAMPPEELNKLLANAKELTNILKYHIGDEILVSGGIGALVRLKSLQGDKLEVSSKNNVVSVNKEPVAETDIMEFGPLGIAGVDGQERGDSLAGLE", "modifications": "MFK25"}, "B3": {"name": "MFK27: fusion peptide having sequential links of mdhFas-1, MMP3 substrate GPLGLWARG (SEQ ID NO: 8), and QERGDSLA (SEQ ID NO: 10) (protein)", "chain": "MALLMRLLTLALALSVGPAGTLARSQAMPPEELNKLLANAKELTNILKYHIGDEILVSGGIGALVRLKSLQGDKLEVSSKNNVVSVNKEPVAETDIMEFGPLGLWARGVDQERGDSLAGLE", "modifications": "MFK27"}},
  "key": {"[1]": {"tested_on": "mouse fibroblast (NIH3T3)", "experiment": "βig-h3-mediated cell adhesion test, NIH3T3", "assay_type": "cell-based", "conditions": "for adhesion inhibiting effect: NIH3T3, concentration of 0.5uM, FIG. 15C; for βig-h3-mediated cell adhesion: NIH3T3, βig-h3 5 ug/ml coat", "method": "(§1) Human βig-h3 was introduced into a 96-well plate at a concentration of 5 ug/ml, and coated for 14 hours at 4° C. In DMEM+0.5% BSA (Bovine Serum Albumin) culture medium, human fibroblast (NIH3T3) was introduced, and hsdhFas-1 peptide at concentrations was injected thereto, followed by mixing. The resultant mixture was cultured at 37° C. for 30 minutes, and plated on a coated well. It was cultured for 2 hours, and washed with PBS (phosphate buffered saline) so as to remove unattached cells, and then added with a substrate (4-Nitrophenyl N-acetyl-β-D-glucosaminide, Sigma, U.S.) to be activated by β-N-acetylglucosaminidase within the cell, followed by culturing at 37° C. for 1 hour. Then, a glycine EDTA solution (0.5M EDTA, 50 mM glycine, pH 10.4) was added thereto, and the coloring extent according to the number of attached cells was measured by absorbance.\nAlso, a structurally modified peptide of a fas-1 domain of mouse βig-h3 was synthesized as a recombinant peptide (hereinafter, referred to as ‘mdhFas-1peptide’, see FIG. 2), and a mouse cell line, that is, NIH3T3 cell line, was used to test the inhibiting effect by mdhFas-1 peptide on adhesion and migration of a Synovial membrane cell in the same manner as that in the test using human βig-h3.\nas §1, with “βig-h3” for “Human βig-h3”, “mouse” for “human”, “MFK23, MFK24, MFK25 or MFK27” for “hsdhFas-1 peptide”"}, "[2]": {"tested_on": "collagen-induced arthritis (CIA) mouse model", "experiment": "Arthritis therapeutic effect in CIA mouse (clinical arthritis index)", "assay_type": "in vivo", "method": "A CIA mouse model having the similar characteristic to that of human rheumatoid arthritis was prepared according to the description in a known literature (Protocol for the successful induction of collagen-induced arthritis (CIA) and collagen antibody-induced arthritis (CAIA) in mice. Chondrex, Redmond, Wash.): Bovine type 2 collagen 100 ug was mixed with Freund's complete adjuvant, and hypodermically inoculated into the tail of the mouse. After 3 weeks, bovine type 2 collagen 100 ug was mixed with Freund's incomplete adjuvant, and inoculated again into the tail of the mouse. Then, the mouse was used in the experiment.\nIn order to find out the therapeutic effect of arthritis in a CIA model, for four weeks from the onset (the 23rd day) of arthritis following the second injection of the bovine type 2 collagen, MFK23 or MFK24 was daily injected into the abdominal cavity in doses of 0.1 mg/kg, 1 mg/kg, 10 mg/kg and 30 mg/kg. As a control group, the same amount of PBS was injected into the abdominal cavity. From the 23rd day to the 50th day, by using a Clinical arthritis index, the severity of arthritis was daily determined. The determination was based on the following data.\n0; no symptom, 1; edema in one articulation or light edema, 2; severe edema in 2 or more articulations, 3; severe edema in most articulations, 4; severe edema in the whole of legs."}, "[3]": {"experiment": "Toxicity test in CIA mouse (weight, serologic test, blood test)", "conditions": "CIA mouse, 22nd day vs 48th day", "protocol": "On the 48th day, a serologic test and a blood test were carried out."}, "[4]": {"tested_on": "NIH3T3", "experiment": "βig-h3-mediated cell migration test (transwell), NIH3T3", "assay_type": "cell-based, mouse", "conditions": "7 hours", "method": "In the lower compartment of a transwell filter having an 8 um hole size allowing cells to be migrated, βig-h3 was cultured at 4° C. for 12 to 14 hours and coated. In DMEM+0.5% BSA culture medium, NIH3T3 was introduced, and administered with MFK23, MFK24 or MFK25 at concentrations, followed by mixing. The resultant mixture was cultured at 37° C. for 30 minutes, inoculated into the upper chamber of the coated well, and cultured for 7 hours at 37° C. Then, the cells migrated to the lower compartment of the filter were fixed by paraformaldehyde, and strained by a crystal violet. The cells […] remaining in the upper chamber were wiped out and the number of cells migrated to the lower compartment was microscopically counted."}, "[5]": {"target": "T1, MMP2 (Homo sapiens, UniProt P08253)", "T1 sequence (P08253 110-660)": "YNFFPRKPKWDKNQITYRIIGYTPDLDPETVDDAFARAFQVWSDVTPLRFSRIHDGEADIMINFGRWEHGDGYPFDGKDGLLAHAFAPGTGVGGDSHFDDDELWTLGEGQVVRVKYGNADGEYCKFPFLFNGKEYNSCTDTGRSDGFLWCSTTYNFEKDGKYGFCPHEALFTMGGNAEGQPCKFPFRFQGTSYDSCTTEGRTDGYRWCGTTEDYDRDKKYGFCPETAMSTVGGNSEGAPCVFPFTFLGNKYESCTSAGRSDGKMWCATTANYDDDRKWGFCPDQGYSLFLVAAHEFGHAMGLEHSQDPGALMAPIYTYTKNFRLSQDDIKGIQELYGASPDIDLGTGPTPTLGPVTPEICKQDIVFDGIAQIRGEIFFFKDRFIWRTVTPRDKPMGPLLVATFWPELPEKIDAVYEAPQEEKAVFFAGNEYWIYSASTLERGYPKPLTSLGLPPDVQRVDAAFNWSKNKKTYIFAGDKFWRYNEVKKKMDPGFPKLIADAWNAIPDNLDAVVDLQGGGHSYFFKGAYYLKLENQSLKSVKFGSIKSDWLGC", "experiment": "Enzymatic digestion test, MMP2", "assay_type": "biochemical", "conditions": "3 ug peptide, MMP2 100, 200, 800 ng, 37° C. 4 hours", "method": "(§2) 3 ug of synthesized mdhFas-1-MMPsubstrate structure modified protein, together with MMP1 (5 ng, 10 ng and 50 ng), MMP2 (100 ng, 200 ng and 800 ng), MMP3 (10 ng, 50 ng and 100 ng), cathepsin D (5 ng, 10 ng and 50 ng), cathepsin L (100 ng, 200 ng and 800 ng), and cathepsin K (10 ng, 50 ng and 100 ng), was mixed with enzyme buffer (150 mM NaCl, 5 mM. CaCl2, 20 mM Tris-HCl pH7.5), and reacted at 37° C. for 4 hours. The resultant product was subjected to electrophoresis through 15% polyacrylamide gel, transferred to a Nitrocellulose Membrane (Schleicher & Schuell), blocked at room temperature for 1 hour with TBST solution containing 3% BSA (20 mmole/L Tris-HCl, 137 mmole//l NaCl, 0.1% Tween-20), washed TBST solution three times (each for 10 minutes), and reacted with primary antibody (anti-Histidine or anti-Bigh3) for 1 hour. The resultant product was washed with TBST solution three times (each for 10 minutes), reacted with a secondary antibody conjugated to horseradish peroxidase (HRP) for 1 hour, washed TBST solution three times (each for 10 minutes), and visualized by ECL (Amersham Biosciences, UK) so as to detect the change in the amount of mdhFas-1-MMPsubstrate-RGD structural peptide."}, "[6]": {"target": "T2, MMP1 (Homo sapiens, UniProt P03956)", "T2 sequence (P03956 100-469)": "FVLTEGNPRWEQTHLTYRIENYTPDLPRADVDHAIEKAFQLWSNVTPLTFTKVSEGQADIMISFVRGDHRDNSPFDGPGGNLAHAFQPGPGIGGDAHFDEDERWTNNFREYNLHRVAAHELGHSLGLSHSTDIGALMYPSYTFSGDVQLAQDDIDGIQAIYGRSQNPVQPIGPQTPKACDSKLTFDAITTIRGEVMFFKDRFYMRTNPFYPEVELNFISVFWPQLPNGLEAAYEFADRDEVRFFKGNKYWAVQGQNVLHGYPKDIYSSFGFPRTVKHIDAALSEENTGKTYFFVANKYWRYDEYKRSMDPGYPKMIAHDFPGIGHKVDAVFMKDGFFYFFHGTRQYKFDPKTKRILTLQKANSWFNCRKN", "experiment": "Enzymatic digestion test, MMP1", "assay_type": "biochemical", "conditions": "3 ug peptide, MMP1 5, 10, 50 ng, 37° C. 4 hours", "method": "as §2"}, "[7]": {"target": "MMP3 (Homo sapiens, UniProt P08254)", "sequence (P08254 100-477, species assumed)": "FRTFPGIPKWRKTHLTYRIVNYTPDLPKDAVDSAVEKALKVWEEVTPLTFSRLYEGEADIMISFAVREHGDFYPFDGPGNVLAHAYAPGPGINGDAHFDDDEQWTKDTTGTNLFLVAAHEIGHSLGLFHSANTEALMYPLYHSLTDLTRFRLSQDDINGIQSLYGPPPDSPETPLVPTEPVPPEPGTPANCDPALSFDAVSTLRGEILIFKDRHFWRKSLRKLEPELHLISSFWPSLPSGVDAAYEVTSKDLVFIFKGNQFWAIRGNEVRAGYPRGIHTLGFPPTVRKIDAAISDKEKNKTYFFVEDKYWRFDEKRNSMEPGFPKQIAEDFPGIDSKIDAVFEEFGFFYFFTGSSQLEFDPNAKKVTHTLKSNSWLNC", "experiment": "Enzymatic digestion test, MMP3", "assay_type": "biochemical", "conditions": "3 ug peptide, MMP3 10, 50, 100 ng, 37° C. 4 hours", "method": "as §2"}, "[8]": {"target": "T3, cathepsin K (Homo sapiens, UniProt P43235)", "T3 sequence (P43235 115-329)": "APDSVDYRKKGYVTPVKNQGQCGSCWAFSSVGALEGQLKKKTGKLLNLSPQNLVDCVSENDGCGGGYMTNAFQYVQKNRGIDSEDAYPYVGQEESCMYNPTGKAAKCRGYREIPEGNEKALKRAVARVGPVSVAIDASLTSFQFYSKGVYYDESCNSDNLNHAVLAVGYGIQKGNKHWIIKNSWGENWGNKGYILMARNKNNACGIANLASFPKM", "experiment": "Enzymatic digestion test, cathepsin K", "assay_type": "biochemical", "conditions": "3 ug peptide, cathepsin K 10, 50, 100 ng, 37° C. 4 hours", "method": "as §2"}, "[9]": {"target": "cathepsin L (Homo sapiens, UniProt P07711)", "sequence (P07711 114-333, species assumed)": "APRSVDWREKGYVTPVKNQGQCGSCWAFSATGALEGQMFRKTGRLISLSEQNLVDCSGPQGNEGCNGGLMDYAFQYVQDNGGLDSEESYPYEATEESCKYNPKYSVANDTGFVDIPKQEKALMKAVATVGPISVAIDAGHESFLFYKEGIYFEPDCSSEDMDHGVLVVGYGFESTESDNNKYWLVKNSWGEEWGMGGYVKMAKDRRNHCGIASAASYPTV", "experiment": "Enzymatic digestion test, cathepsin L", "assay_type": "biochemical", "conditions": "3 ug peptide, cathepsin L 100, 200, 800 ng, 37° C. 4 hours", "method": "as §2"}, "[10]": {"target": "cathepsin D (Homo sapiens, UniProt P07339)", "sequence (P07339 65-412, species assumed)": "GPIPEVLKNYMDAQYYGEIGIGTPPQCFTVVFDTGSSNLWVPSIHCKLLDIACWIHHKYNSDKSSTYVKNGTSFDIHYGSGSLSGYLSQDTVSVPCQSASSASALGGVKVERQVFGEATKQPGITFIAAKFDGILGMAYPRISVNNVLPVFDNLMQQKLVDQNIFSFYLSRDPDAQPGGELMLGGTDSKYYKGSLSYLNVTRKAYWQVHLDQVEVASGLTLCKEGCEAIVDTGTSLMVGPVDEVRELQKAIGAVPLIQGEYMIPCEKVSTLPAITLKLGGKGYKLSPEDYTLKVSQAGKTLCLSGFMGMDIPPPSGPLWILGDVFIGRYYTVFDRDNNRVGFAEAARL", "experiment": "Enzymatic digestion test, cathepsin D", "assay_type": "biochemical", "conditions": "3 ug peptide, cathepsin D 5, 10, 50 ng, 37° C. 4 hours", "method": "as §2"}},
  "note": "Entries after “also recorded” stand apart in the source; their conditions may differ.",
  "data": [
    {"molecule": "RGDSP (amino acid chain comprising ′RGD′) [reference compound]", "values": [
      {"measurement": "adhesion inhibiting effect", "setting": "[1]", "value": 0, "unit": "%"}
    ]},
    {"molecule": "B1", "values": [
      {"measurement": "arthritis inhibition (clinical arthritis index)", "setting": "[2]; 10 mg/kg daily", "value": "about 32%"},
      {"measurement": "arthritis inhibition (clinical arthritis index)", "setting": "[2]; 30 mg/kg daily", "value": "about 69%"},
      {"measurement": "arthritis inhibiting effect (clinical arthritis index), in words", "setting": "[2]; daily into the abdominal cavity", "value": "concentration-dependently inhibited"},
      {"measurement": "body weight change compared to control group", "setting": "[3]", "value": "abnormal findings in the weight change were not observed"},
      {"measurement": "βig-h3-mediated cell migration", "setting": "[4]", "value": "concentration-dependently inhibited"},
      {"measurement": "adhesion inhibiting effect", "setting": "[1]", "value": 50, "unit": "%"},
      {"measurement": "βig-h3-mediated cell adhesion", "setting": "[1]", "value": "concentration-dependently inhibited"}
    ]},
    {"molecule": "B2", "values": [
      {"measurement": "cleavage through treatment with MMP-2", "setting": "[5]", "value": "concentration-dependently cleaved"},
      {"measurement": "βig-h3-mediated cell migration", "setting": "[4]", "value": "inhibited the cell migration; also recorded: concentration-dependently inhibited"},
      {"measurement": "cleavage through treatment with MMP-1", "setting": "[6]", "value": "concentration-dependently cleaved; also recorded: well cleaved"},
      {"measurement": "cleavage through treatment with MMP-3", "setting": "[7]", "value": "concentration-dependently cleaved; also recorded: well cleaved"},
      {"measurement": "βig-h3-mediated cell adhesion", "setting": "[1]", "value": "even at a very low concentration can inhibit the cell adhesion; also recorded: concentration-dependently inhibited"},
      {"measurement": "cleavage through treatment with cathepsin K", "setting": "[8]", "value": "not cleaved"},
      {"measurement": "cleavage through treatment with cathepsin L", "setting": "[9]", "value": "not cleaved"},
      {"measurement": "cleavage through treatment with cathepsin D", "setting": "[10]", "value": "not cleaved"}
    ]},
    {"molecule": "B3", "values": [
      {"measurement": "βig-h3-mediated cell adhesion", "setting": "[1]", "value": "even at a very low concentration can inhibit the cell adhesion; also recorded: concentration-dependently inhibited"}
    ]}
  ]
}
